Consider four compounds from publication PMC5970223, “Multiplexed profiling of GPCR activities by combining split TEV assays and EXT-based barcoded readouts” (Scientific Reports, 2018).

Structures can show the parent of a compound that is named as a salt.

Assay [1] relates to dopamine and the adrenergic receptors. As to conditions: U2OS cells, agonist 100 pM to 100 µM. As to the method:
(§1) Two hours after transfection, all cell populations were pooled, mixed, and evenly divided into fractions for plating onto assay dishes (Fig. 2a). The cells were cultured and stimulated under identical conditions for agonist or antagonist assays as initially described for GPCR split TEV assays (Supplementary Fig. S1a,b).
(§2) After cell lysis, RNA from each sample was isolated and converted into cDNA by reverse transcription. […] This permits the mixing of all samples and sequencing of all pooled samples using a single sequencing run (Fig. 2b). The sample barcodes enable tracing experimental conditions, whereas the read counts per EXTs serve as quantitative measurements for the corresponding GPCRs. […] From the normalized data the fold changes of receptor activities were finally calculated.
(§3) In addition to the stimulation with the single compounds, a compound-mixture (mix) of all agonists was tested. The first set of experiments were carried out in the human osteosarcoma cell line U2OS. We normalized the raw sequencing data to total read numbers of sample codes, followed by averaging reads of internal and external calibrator EXTs as described above (Supplementary Fig. S4).
(§4) Cells were resuspended in culture medium without antibiotics at a density of 1.5 × 10^6 cells/ml (U2OS) or 3 × 10^6 cells/ml (PC12). […] Transfection-mixes were added to cell suspensions and incubated for 2 h at 37 °C without shaking. Suspensions were centrifuged for 5 min at 900 rpm and resuspended in culture medium to remove transfection reagents. All transfection samples were combined within one pool and plated on multiple wells of 6-well plates and incubated for 24 h at 37 °C. Afterwards, cells were starved for 17–18 h and then treated with compounds for 6 h in duplicates. After compound treatment cells were washed with PBS and 500 µl RLT lysis buffer was applied for cell lysis. Lysates were processed for sequencing as described below.
RNA was additional in solution treated with Turbo DNase (Ambion) for 30 min at 37 °C and repurified over an RNeasy column. […]

Assay [2] concerns the target ADRA1A-V2R-NTEV-tevS-GV (human) (UniProt P35348). In words: split reporter (BiFC, NanoBiT); multiplexed GPCRprofiler: split TEV with EXT barcode read-out, identical experiment in PC12 cells (Supplementary Fig. S5).
Assay [3] addresses AVPR1A-V2R-NTEV-tevS-GV (human) (UniProt P37288). Described as above.
The target of assay [4] is HTR2A-V2R-NTEV-tevS-GV (human) (UniProt P28223). The description is as above.
Assay [5] deals with ADRA2B-V2R-NTEV-tevS-GV (human) (UniProt P18089). In words: split reporter (BiFC, NanoBiT); multiplexed GPCRprofiler: split TEV with EXT barcode read-out, U2OS cells transiently transfected with GPCR-V2R-NTEV-tevS-GV and β-arrestin2delta-CTEV, pooled; serotonin, dopamine, epinephrine, vasopressin, somatostatin or their mix, 100 pM to 100 µM, 6 h; also with paliperidone or aripiprazole alone or with an agonist mix (1 µM each, with histamine); fold change over unstimulated.

Assay [6] concerns the target ADRA2C-V2R-NTEV-tevS-GV (human) (UniProt P18825). The assay is described as above.
Assay [7] deals with DRD1-V2R-NTEV-tevS-GV (human) (UniProt P21728). The description is as above.
Assay [8] has as its target DRD2-V2R-NTEV-tevS-GV (human) (UniProt P14416). Described as above.
The target in assay [9] is DRD3-V2R-NTEV-tevS-GV (human) (UniProt P35462). The assay is described as above.
For assay [10], the target named is SSTR1-V2R-NTEV-tevS-GV (human) (UniProt P30872). The assay is described as above.
The target in another assay is SSTR2 and SSTR3. The description is as above.
For assay [11], the system named is T1, Vasopressin receptor AVPR1A.
T1 construct: ORFs of GPCRs were PCR amplified; expressed in transfected cells; host or cells: U2OS
In words: multiplexed GPCRprofiler assay in U2OS cells. Type of assay: cell-based, human. As to conditions: agonist 100 pM to 100 µM. As to the method: as §1, §2, §3, §4
(§5) RNA was additional in solution treated with Turbo DNase (Ambion) for 30 min at 37 °C and repurified over an RNeasy column. First-strand cDNA synthesis was performed with 1 µg total RNA using superscript III reverse transcriptase (Invitrogen) and 120 pmol of a random nanomer primer. […] On order to differentiate different samples 13mer barcodes were introduced between 5′ Ion adapter and target sequence. All processed samples of an experiment were combined within one pool and purified using PCR clean-up kit (Macherey-Nagel).
(§6) Raw sequencing data analyses were done by using BLAST algorithm and in-house developed R scripts.

The subject of assay [12] is T2, Vasopressin receptor AVPR2.
T2 construct: ORFs of GPCRs were PCR amplified; expressed in transfected cells; host or cells: U2OS
In words: multiplexed GPCRprofiler assay in U2OS cells. As to conditions: agonist 100 pM to 100 µM. It is filed as cell-based, human. How it is done:
as §1, §2, §3, §4, §5, §6

Assay [13] concerns T3, somatostatin receptor SSTR1.
T3 construct: ORFs of GPCRs were PCR amplified; expressed in transfected cells; host or cells: U2OS
In words: multiplexed GPCRprofiler assay in U2OS cells. Type of assay: cell-based, human. As to conditions: agonist 100 pM to 100 µM. As to the method: as §1, §2, §3, §4, §5, §6

Assay [14] deals with T4, somatostatin receptor SSTR2.
T4 construct: ORFs of GPCRs were PCR amplified; expressed in transfected cells; host or cells: U2OS
The experiment in a line: multiplexed GPCRprofiler assay in U2OS cells. Type of assay: cell-based, human. As to conditions: agonist 100 pM to 100 µM. How it is done:
as §1, §2, §3, §4, §5, §6

The test system of assay [15] is T5, somatostatin receptor SSTR3.
T5 construct: ORFs of GPCRs were PCR amplified; expressed in transfected cells; host or cells: U2OS
The experiment in a line: multiplexed GPCRprofiler assay in U2OS cells. Type of assay: cell-based, human. Conditions: agonist 100 pM to 100 µM. How it is done:
as §1, §2, §3, §4, §5, §6

Sequence of β-arrestin2delta-CTEV (P32121 1-383, stated change not applied): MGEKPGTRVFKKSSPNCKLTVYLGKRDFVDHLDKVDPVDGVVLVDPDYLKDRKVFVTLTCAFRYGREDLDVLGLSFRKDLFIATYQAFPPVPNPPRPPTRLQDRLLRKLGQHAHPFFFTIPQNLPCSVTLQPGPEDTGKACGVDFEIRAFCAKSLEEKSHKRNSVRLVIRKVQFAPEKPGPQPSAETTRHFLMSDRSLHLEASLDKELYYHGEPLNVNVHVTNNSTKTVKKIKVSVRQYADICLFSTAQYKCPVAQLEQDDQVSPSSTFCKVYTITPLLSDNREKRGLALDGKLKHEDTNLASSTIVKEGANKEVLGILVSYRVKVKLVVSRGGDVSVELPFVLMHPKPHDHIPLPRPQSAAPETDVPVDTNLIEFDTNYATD
Sequence of ADRA2C-V2R-NTEV-tevS-GV (human) (P18825 whole entry): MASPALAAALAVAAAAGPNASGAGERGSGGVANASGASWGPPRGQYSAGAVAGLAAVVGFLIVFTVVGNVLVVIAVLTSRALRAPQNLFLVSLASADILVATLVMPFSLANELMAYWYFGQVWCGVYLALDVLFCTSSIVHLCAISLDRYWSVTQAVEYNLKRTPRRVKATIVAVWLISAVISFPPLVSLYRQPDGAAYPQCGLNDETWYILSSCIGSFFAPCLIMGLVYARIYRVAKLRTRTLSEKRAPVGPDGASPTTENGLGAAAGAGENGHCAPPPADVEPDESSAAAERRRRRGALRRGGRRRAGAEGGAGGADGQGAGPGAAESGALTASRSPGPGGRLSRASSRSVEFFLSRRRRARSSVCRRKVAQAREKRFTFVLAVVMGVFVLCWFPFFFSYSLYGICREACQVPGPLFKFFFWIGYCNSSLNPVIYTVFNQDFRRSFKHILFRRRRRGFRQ
Sequence of ADRA1A-V2R-NTEV-tevS-GV (human) (P35348 whole entry): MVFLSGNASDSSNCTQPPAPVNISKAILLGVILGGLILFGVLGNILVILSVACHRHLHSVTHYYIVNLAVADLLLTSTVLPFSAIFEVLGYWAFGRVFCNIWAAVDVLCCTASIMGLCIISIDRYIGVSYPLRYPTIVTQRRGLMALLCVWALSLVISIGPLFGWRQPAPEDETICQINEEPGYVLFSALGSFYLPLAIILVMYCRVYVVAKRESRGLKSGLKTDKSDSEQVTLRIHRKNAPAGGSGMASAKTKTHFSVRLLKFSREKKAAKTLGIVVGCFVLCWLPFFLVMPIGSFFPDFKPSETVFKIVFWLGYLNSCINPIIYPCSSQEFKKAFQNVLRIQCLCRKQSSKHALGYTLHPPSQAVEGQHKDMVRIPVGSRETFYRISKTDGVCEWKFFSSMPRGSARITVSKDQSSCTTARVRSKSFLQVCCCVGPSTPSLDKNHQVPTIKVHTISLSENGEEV
Sequence of DRD2-V2R-NTEV-tevS-GV (human) (P14416 whole entry): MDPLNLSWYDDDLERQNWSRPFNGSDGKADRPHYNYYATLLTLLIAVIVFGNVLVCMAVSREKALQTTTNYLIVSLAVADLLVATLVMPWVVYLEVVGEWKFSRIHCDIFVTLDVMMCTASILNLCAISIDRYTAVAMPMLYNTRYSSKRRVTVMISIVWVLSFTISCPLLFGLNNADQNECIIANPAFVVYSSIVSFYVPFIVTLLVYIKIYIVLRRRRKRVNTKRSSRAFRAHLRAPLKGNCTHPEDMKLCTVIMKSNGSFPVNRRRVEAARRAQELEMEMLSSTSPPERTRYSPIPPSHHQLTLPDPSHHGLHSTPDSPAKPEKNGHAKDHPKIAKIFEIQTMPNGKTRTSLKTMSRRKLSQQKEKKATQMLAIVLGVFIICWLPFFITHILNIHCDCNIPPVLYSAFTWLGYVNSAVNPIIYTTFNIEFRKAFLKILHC
Sequence of DRD3-V2R-NTEV-tevS-GV (human) (P35462 whole entry): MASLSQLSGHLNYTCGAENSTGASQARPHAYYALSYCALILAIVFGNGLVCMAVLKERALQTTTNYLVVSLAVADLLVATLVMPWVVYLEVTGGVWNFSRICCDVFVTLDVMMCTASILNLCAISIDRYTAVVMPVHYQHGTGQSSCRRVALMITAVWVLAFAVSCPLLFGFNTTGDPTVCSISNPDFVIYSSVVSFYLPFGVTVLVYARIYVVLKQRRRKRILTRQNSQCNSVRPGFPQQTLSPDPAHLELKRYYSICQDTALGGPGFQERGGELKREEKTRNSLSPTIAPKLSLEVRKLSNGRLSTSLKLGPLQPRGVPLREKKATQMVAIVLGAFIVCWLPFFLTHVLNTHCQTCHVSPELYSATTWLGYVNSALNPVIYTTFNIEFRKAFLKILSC
Sequence of SSTR1-V2R-NTEV-tevS-GV (human) (P30872 whole entry): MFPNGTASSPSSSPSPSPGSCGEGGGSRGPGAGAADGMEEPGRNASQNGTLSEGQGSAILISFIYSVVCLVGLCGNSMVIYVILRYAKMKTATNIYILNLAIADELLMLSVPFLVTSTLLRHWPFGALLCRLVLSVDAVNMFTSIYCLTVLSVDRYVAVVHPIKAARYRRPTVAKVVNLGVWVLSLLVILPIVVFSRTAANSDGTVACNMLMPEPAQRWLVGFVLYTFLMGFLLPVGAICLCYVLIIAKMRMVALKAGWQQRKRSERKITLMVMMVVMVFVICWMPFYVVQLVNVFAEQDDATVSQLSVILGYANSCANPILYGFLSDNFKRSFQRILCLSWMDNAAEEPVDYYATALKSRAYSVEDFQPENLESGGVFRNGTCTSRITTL
Sequence of ADRA2B-V2R-NTEV-tevS-GV (human) (P18089 whole entry): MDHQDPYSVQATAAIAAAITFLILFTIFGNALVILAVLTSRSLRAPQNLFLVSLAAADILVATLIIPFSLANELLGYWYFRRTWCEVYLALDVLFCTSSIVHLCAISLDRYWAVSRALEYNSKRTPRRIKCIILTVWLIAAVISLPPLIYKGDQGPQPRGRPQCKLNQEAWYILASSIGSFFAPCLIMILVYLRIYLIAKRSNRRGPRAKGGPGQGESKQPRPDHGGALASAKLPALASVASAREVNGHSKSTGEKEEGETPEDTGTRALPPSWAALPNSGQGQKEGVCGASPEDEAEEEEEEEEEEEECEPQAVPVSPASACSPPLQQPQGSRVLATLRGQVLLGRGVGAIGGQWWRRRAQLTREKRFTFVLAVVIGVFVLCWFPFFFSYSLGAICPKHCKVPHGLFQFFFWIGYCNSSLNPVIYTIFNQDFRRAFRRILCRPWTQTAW
Sequence of AVPR1A-V2R-NTEV-tevS-GV (human) (P37288 whole entry): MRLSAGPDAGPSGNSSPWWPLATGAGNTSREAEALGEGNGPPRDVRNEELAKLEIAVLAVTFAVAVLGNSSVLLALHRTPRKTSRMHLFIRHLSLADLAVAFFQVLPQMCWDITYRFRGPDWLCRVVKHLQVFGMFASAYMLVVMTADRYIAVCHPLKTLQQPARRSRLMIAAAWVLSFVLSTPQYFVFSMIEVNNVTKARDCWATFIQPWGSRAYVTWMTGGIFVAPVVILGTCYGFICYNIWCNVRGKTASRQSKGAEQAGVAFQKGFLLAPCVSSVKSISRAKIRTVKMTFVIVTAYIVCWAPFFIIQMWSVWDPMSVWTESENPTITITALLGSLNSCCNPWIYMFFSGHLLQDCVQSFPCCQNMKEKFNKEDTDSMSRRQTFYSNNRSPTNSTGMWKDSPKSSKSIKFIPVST

As to `CNC[C@H](O)c1ccc(O)c(O)c1` [Epinephrine, Epinephrine hydrochloride], the “signals of both receptor subfamilies (dopamine and adrenergic) upon stimulation” value in [1] is on record as “elevated signals”.
For the compound “β-arrestin2delta-CTEV (from UniProt P32121 1-383) (domain or fragment)”, the values for the fold activation (split TEV signal) in assay [2], in [3] and in [4] were 314 fold, 44.3 fold and 89.5 fold, respectively. Moreover, the fold change of receptor activation (split TEV signal) over unstimulated is 10 fold in [5]; 13 fold in assay [6]; 2 fold in assay [7]; 2 fold in assay [9]; 4 fold in [10]; 9 to 10 fold in the assay with SSTR2 and SSTR3. For the same compound, the fold change of receptor activation (split TEV signal) over unstimulated, at 10 µM serotonin in assay [8] was found to be 5 fold.
Take [Arg8]-Vasopressin acetate salt: the “receptor induction by agonist” value in assay [11] and in assay [12] was “induced” each time.
With Somatostatin, the “induction rate (up to)” value in assay [13] is given as “up to 4 fold”; in assay [14], 9–10 fold; in assay [15], 9–10 fold.
